B1: Cyclin-dependent kinase 4 inhibitor D (Homo sapiens), P55273 (parent)
chain: MLLEEVRAGDRLSGAAARGDVQEVRRLLHRELVHPDALNRFGKTALQVMMFGSTAIALELLKQGASPNVQDTSGTSPVHDAARTGFLDTLKVLVEHGADVNVPDGTGALPIHLAVQEGHTAVVSFLAAESDLHRRDARGLTPLELALQRGAQDLVDILQGHMVAPL
B2: Nucleoporin p58/p45 (Homo sapiens), Q9BVL2 (parent)
chain: MSTGFSFGSGTLGSTTVAAGGTSTGGVFSFGTGASSNPSVGLNFGNLGSTSTPATTSAPSSGFGTGLFGSKPATGFTLGGTNTGIATTITTGLTLGTPATTSAATTGFSLGFNKPAASATPFALPITSTSASGLTLSSALTSTPAASTGFTLNNLGGTTATTTTASTGLSLGGALAGLGGSLFQSTNTGTSGLGQNALGLTLGTTAATSTAGNEGLGGIDFSSSSDKKSDKTGTRPEDSKALKDENLPPVICQDVENLQKFVKEQKQVQEEISRMSSKAMLKVQEDIKALKQLLSLAANGIQRNTLNIDKLKIETAQELKNAEIALRTQKTPPGLQHEYAAPADYFRILVQQFEVQLQQYRQQIEELENHLATQANNSHITPQDLSMAMQKIYQTFVALAAQLQSIHENVKVLKEQYLGYRKMFLGDAVDVFETRRAEAKKWQNTPRVTTGPTPFSTMPNAAAVAMAATLTQQQQPATGPQPSLGVSFGTPFGSGIGTGLQSSGLGSSNLGGFGTSSGFGCSTTGASTFGFGTTNKPSGSLSAGFGSSSTSGFNFSNPGITASAGLTFGVSNPASAGFGTGGQLLQLKKPPAGNKRGKR
B3: Calcium-binding and coiled-coil domain-containing protein 2 (Homo sapiens), Q13137 (parent)
chain: MEETIKDPPTSAVLLDHCHFSQVIFNSVEKFYIPGGDVTCHYTFTQHFIPRRKDWIGIFRVGWKTTREYYTFMWVTLPIDLNNKSAKQQEVQFKAYYLPKDDEYYQFCYVDEDGVVRGASIPFQFRPENEEDILVVTTQGEVEEIEQHNKELCKENQELKDSCISLQKQNSDMQAELQKKQEELETLQSINKKLELKVKEQKDYWETELLQLKEQNQKMSSENEKMGIRVDQLQAQLSTQEKEMEKLVQGDQDKTEQLEQLKKENDHLFLSLTEQRKDQKKLEQTVEQMKQNETTAMKKQQELMDENFDLSKRLSENEIICNALQRQKERLEGENDLLKRENSRLLSYMGLDFNSLPYQVPTSDEGGARQNPGLAYGNPYSGIQESSSPSPLSIKKCPICKADDICDHTLEQQQMQPLCFNCPICDKIFPATEKQIFEDHVFCHSL
partner: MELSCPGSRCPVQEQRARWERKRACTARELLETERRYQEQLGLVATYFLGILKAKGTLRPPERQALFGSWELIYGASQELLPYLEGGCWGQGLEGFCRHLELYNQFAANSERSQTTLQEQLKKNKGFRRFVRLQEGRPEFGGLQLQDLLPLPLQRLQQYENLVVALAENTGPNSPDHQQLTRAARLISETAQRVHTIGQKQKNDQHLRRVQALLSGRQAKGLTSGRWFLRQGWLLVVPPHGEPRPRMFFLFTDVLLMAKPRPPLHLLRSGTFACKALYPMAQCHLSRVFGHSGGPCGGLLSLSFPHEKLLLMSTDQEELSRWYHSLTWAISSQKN
B4: Centrosomal protein POC5 (Homo sapiens), Q8NA72 (parent)
chain: MSSDEEKYSLPVVQNDSSRGSSVSSNLQEEYEELLHYAIVTPNIEPCASQSSHPKGELVPDVRISTIHDILHSQGNNSEVRETAIEVGKGCDFHISSHSKTDESSPVLSPRKPSHPVMDFFSSHLLADSSSPATNSSHTDAHEILVSDFLVSDENLQKMENVLDLWSSGLKTNIISELSKWRLNFIDWHRMEMRKEKEKHAAHLKQLCNQINELKELQKTFEISIGRKDEVISSLSHAIGKQKEKIELMRTFFHWRIGHVRARQDVYEGKLADQYYQRTLLKKVWKVWRSVVQKQWKDVVERACQARAEEVCIQISNDYEAKVAMLSGALENAKAEIQRMQHEKEHFEDSMKKAFMRGVCALNLEAMTIFQNRNDAGIDSTNNKKEEYGPGVQGKEHSAHLDPSAPPMPLPVTSPLLPSPPAAVGGASATAVPSAASMTSTRAASASSVHVPVSALGAGSAATAASEEMYVPRVVTSAQQKAGRTITARITGRCDFASKNRISSSLAIMGVSPPMSSVVVEKHHPVTVQTIPQATAAKYPRTIHPESSTSASRSLGTRSAHTQSLTSVHSIKVVD
B5: E3 ubiquitin-protein ligase TRIM39 (Homo sapiens), Q9HCM9 (parent)
chain: MAETSLLEAGASAASTAAALENLQVEASCSVCLEYLKEPVIIECGHNFCKACITRWWEDLERDFPCPVCRKTSRYRSLRPNRQLGSMVEIAKQLQAVKRKIRDESLCPQHHEALSLFCYEDQEAVCLICAISHTHRAHTVVPLDDATQEYKEKLQKCLEPLEQKLQEITRCKSSEEKKPGELKRLVESRRQQILREFEELHRRLDEEQQVLLSRLEEEEQDILQRLRENAAHLGDKRRDLAHLAAEVEGKCLQSGFEMLKDVKSTLEKNIPRKFGGSLSTICPRDHKALLGLVKEINRCEKVKTMEVTSVSIELEKNFSNFPRQYFALRKILKQLIADVTLDPETAHPNLVLSEDRKSVKFVETRLRDLPDTPRRFTFYPCVLATEGFTSGRHYWEVEVGDKTHWAVGVCRDSVSRKGELTPLPETGYWRVRLWNGDKYAATTTPFTPLHIKVKPKRVGIFLDYEAGTLSFYNVTDRSHIYTFTDTFTEKLWPLFYPGIRAGRKNAAPLTIRPPTDWE
B6: GRIP and coiled-coil domain-containing protein 1 (Homo sapiens), Q96CN9 (parent)
chain: MEKFGMNFGGGPSKKDLLETIETQKKQLLQYQARLKDVVRAYKSLLKEKEALEASIKVLSVSHEADVGLAGVQLPGLTFPDSVDDRCSTHSEDSTGTATSLDTAASLTSTKGEFGVEDDRPARGPPPPKSEEASWSESGVSSSSGDGPFAGGEVDKRLHQLKTQLATLTSSLATVTQEKSRMEASYLADKKKMKQDLEDASNKAEEERARLEGELKGLQEQIAETKARLITQQHDRAQEQSDHALMLRELQKLLQEERTQRQDLELRLEETREALAGRAYAAEQMEGFELQTKQLTREVEELKSELQAIRDEKNQPDPRLQELQEEAARLKSHFQAQLQQEMRKTALAEDQLRQQSQVEEQRVAALENQISEVSELLGTYEKAKQKDQLAIQKLKERILQLDLENKTLALAASSRSPLDSHGEESSLDVNVLKDKMEKLKRLLQVAARKSQVTLDVEKLCDLEIMPSSEAADGEKATALYYQQELKQLKEEFERYKMRAQVVLKSKNTKDGNLGKELEAAQEQLAELKEKYISLRLSCEELEHQHQQEADDWKQELARLQQLHRQELERCQLDFRDRTLKLEEELHKQRDRALAVLTEKDLELEQLRSVALASGLPGRRSPVGGGGPGDPADTSSSDSLTQALQLAAANEPTFFLYAEQLARKEVEITSLRKQKHRLEVEVHQLQDRLLEEGERHREEVAALQSHIEKNIRDQSREGANLEYLKNIIYRFLTLPDSLGRQQTLTAILTILHFSPEEKQVIMRLPTSASWWPSGKR
B7: ADP-ribosylation factor-like protein 2-binding protein (Homo sapiens), Q9Y2Y0 (parent)
chain: MDALEGESFALSFSSASDAEFDAVVGYLEDIIMDDEFQLLQRNFMDKYYLEFEDTEENKLIYTPIFNEYISLVEKYIEEQLLQRIPEFNMAAFTTTLQHHKDEVAGDIFDMLLTFTDFLAFKEMFLDYRAEKEGRGLDLSSGLVVTSLCKSSSLPASQNNLRH
B8: Coiled-coil domain-containing protein 74A (Homo sapiens), Q96AQ1 (parent)
chain: MSGAGVAAGTRPPSSPTPGSRRRRQRPSVGVQSLRPQSPQLRQSDPQKRNLDLEKSLQFLQQQHSEMLAKLHEEIEHLKRENKDLHYKLIMNQTSQKKDGPSGNHLSRASAPLGARWVCINGVWVEPGGPSPARLKEGSSRTHRPGGKRGRLAGGSADTVRSPADSLSMSSFQSVKSISNSGKARPQPGSFNKQDSKADVSQKADLEEEPLLHNSKLDKVPGVQGQARKEKAEASNAGAACMGNSQHQGRQMGAGAHPPMILPLPLRKPTTLRQCEVLIRELWNTNLLQTQELRHLKSLLEGSQRPQAAPEEASFPRDQEATHFPKVSTKSLSKKCLSPPVAERAILPALKQTPKNNFAERQKRLQAMQKRRLHRSVL
B9: Segment polarity protein dishevelled homolog DVL-2 (Homo sapiens), O14641 (parent)
chain: MAGSSTGGGGVGETKVIYHLDEEETPYLVKIPVPAERITLGDFKSVLQRPAGAKYFFKSMDQDFGVVKEEISDDNARLPCFNGRVVSWLVSSDNPQPEMAPPVHEPRAELAPPAPPLPPLPPERTSGIGDSRPPSFHPNVSSSHENLEPETETESVVSLRRERPRRRDSSEHGAGGHRTGGPSRLERHLAGYESSSTLMTSELESTSLGDSDEEDTMSRFSSSTEQSSASRLLKRHRRRRKQRPPRLERTSSFSSVTDSTMSLNIITVTLNMEKYNFLGISIVGQSNERGDGGIYIGSIMKGGAVAADGRIEPGDMLLQVNDMNFENMSNDDAVRVLRDIVHKPGPIVLTVAKCWDPSPQAYFTLPRNEPIQPIDPAAWVSHSAALTGTFPAYPGSSSMSTITSGSSLPDGCEGRGLSVHTDMASVTKAMAAPESGLEVRDRMWLKITIPNAFLGSDVVDWLYHHVEGFPERREARKYASGLLKAGLIRHTVNKITFSEQCYYVFGDLSGGCESYLVNLSLNDNDGSSGASDQDTLAPLPGATPWPLLPTFSYQYPAPHPYSPQPPPYHELSSYTYGGGSASSQHSEGSRSSGSTRSDGGAGRTGRPEERAPESKSGSGSESEPSSRGGSLRRGGEASGTSDGGPPPSRGSTGGAPNLRAHPGLHPYGPPPGMALPYNPMMVVMMPPPPPPVPPAVQPPGAPPVRDLGSVPPELTASRQSFHMAMGNPSEFFVDVM
partner: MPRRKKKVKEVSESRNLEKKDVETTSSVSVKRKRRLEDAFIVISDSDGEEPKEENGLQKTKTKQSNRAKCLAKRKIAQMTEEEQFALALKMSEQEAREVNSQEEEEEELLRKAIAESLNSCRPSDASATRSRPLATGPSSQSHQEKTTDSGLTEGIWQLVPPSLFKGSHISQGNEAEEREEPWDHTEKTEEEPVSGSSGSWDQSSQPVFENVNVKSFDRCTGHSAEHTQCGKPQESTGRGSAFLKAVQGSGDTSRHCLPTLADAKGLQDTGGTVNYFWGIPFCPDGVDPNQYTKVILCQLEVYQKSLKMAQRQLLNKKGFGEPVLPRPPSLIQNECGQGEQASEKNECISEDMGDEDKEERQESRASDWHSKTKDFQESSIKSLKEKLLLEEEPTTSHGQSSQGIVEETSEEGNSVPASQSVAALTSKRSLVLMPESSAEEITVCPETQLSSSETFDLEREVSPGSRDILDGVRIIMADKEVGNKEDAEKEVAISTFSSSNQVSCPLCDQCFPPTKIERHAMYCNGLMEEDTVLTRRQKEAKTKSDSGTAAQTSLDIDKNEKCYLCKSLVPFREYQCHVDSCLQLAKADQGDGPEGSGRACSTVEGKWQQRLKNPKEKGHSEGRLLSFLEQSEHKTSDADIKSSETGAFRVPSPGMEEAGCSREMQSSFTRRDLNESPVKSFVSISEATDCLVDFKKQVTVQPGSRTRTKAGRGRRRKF

Variants of: B1
Conditions: with nr4a1_human NR4A1, P22736
In the case of P142S, the “effect of a mutation on the interaction” value is reported as “disrupting interaction strength”.

Variants of: B1
Conditions: with nr4a2_human NR4A2, P43354
For P142S, the “effect of a mutation on the interaction” value was “with no effect”.

Variants of: B1
Conditions: with cdk6_human CDK6, Q00534
P142S was tested, and the “effect of a mutation on the interaction” value was “with no effect”.

Variants of: B2
Conditions: with nup62_human NUP62, P37198
A34T was tested, and the “effect of a mutation on the interaction” value was “with no effect”.

Variants of: B2
Conditions: with traf1_human TRAF1, Q13077
With A34T the “effect of a mutation on the interaction” value was “with no effect”.

Variants of: B3
Conditions: with arg39_human ARHGEF39, Q8N4T4
With V248A the “effect of a mutation on the interaction” value was “with no effect”.

Variants of: B4
Conditions: with cetn1_human CETN1, Q12798
In the case of R302K, the “effect of a mutation on the interaction” value is reported as “with no effect”.
With I85T the “effect of a mutation on the interaction” value was “with no effect”.
D148N was tested, and the “effect of a mutation on the interaction” value was “with no effect”.
With A446T the “effect of a mutation on the interaction” value was “with no effect”.
H36R was tested, and the “effect of a mutation on the interaction” value was “with no effect”.
For I175M, the “effect of a mutation on the interaction” value was “with no effect”.

Variants of: B4
Conditions: with cetn2_human CETN2, P41208
For H36R, the “effect of a mutation on the interaction” value was “with no effect”.

Variants of: B5
Conditions: with znf26_human ZNF26, P17031
In the case of L194S, the “effect of a mutation on the interaction” value is reported as “disrupting interaction strength”.

Variants of: B5
Conditions: with ccnc_human CCNC
With L194S the “effect of a mutation on the interaction” value was “disrupting interaction strength”.

Variants of: B5
Conditions: with if4a2_human EIF4A2, Q14240
With L194S the “effect of a mutation on the interaction” value was “disrupting interaction strength”.

Variants of: B5
Conditions: with ub2e2_human UBE2E2, Q96LR5
With L194S the “effect of a mutation on the interaction” value was “disrupting interaction strength”.

Variants of: B5
Conditions: with ub2d3_human UBE2D3, P61077
In the case of L194S, the “effect of a mutation on the interaction” value is reported as “disrupting interaction strength”.

Variants of: B6
Conditions: with mcrs1_human MCRS1, Q96EZ8
A274T was tested, and the “effect of a mutation on the interaction” value was “with no effect”.

Variants of: B6
Conditions: with amol2_human AMOTL2, Q9Y2J4
A274T was tested, and the “effect of a mutation on the interaction” value was “with no effect”.

Variants of: B7
Conditions: with arl2_human ARL2, P36404
In the case of E87K, the “effect of a mutation on the interaction” value is reported as “disrupting interaction strength”.
For M45R, the “effect of a mutation on the interaction” value was “disrupting interaction strength”.

Variants of: B8
Conditions: with mtus2_human MTUS2, Q5JR59
With G302R the “effect of a mutation on the interaction” value was “with no effect”.

Variants of: B9
Conditions: with uimc1_human UIMC1, Q96RL1
R415Q was tested, and the “effect of a mutation on the interaction” value was “with no effect”.

— IntAct's records for PubMed 31515488
